Measurements as given in US20230212319A1, “NOVEL ANTIGEN BINDING DOMAINS AND SYNTHETIC ANTIGEN RECEPTORS INCORPORATING THE SAME” (University of Southern California, priority 2020, published 2023).

system: L363 cells; assay: JNG assay, co-culture with L363 cells; type: cell-based; conditions: co-culture with L363
Procedure: Cellular supernatant is collected and assayed for the induction of cytokines (e.g., IL2).
JNG (Jurkat cells expressing EGFP under an NFAT promoter) were infected with lentiviral vectors encoding different single chain and multi-chain SARs by spinfection in the presence of 8 µg/ml of Polybrene® (Sigma, Catalog no. H9268). The Jurkat-NFAT-GFP cells are engineered in such a way that the IL-2 promoter, which carries NFAT binding sites, is cloned upstream of the GFP gene. These cells have been used to study signaling via TCR and CAR. The different SARs were stably expressed in Jurkat NFAT-GFP cells by lentiviral mediated gene transfer, followed by selection with puromycin or blasticidin. No drug selection was used in case the construct lacked an antibiotic resistance gene. The SAR-expressing Jurkat-NFAT-GFP cells were cocultured with the target cells at E:T ratio of approximately 1:2 for approximately 4 hours to 18 hours. When the interaction between SIRs and their target antigen results in activation of the NFAT pathway, GFP expression is induced. […] GFP expression was monitored by FACS analysis. The Jurkat-NFAT-GFP (parental) cells were used as control. The structure of different constructs can be determined based on their names. […] The sequence of the other constructs in the table can be similarly determined from their names and by referring to the different Tables of this disclosure that provide the names and SEQ ID NO of the different modules. Alternatively, the composition and modular architecture of the different SAR constructs can be determined from their sequences by bioinformatics tools, including using nucleic acid and amino acids homology searches. A SAR is considered positive in the assay in case the SAR expressing Jurkat-NFAT-GFP cells show greater % GFP positive cells when cultured with the target cell line as compared to parental Jurkat-NFAT-GFP cells. […] In general, the number +/-, +, 2+, 3+, 4+, 5+ refer to approximately 5%, 10%, 20%, 30%, 40% and 50% GFP positive cells. The % of GFP induction in the above assay is dependent not only the relative strength of the SAR but also, among other factors, on the relative level of expression of the SAR in the JNG cells and the relative level of expression of the target antigen in the target cell line. To control for the difference in gene transduction efficiency of the different SAR constructs, the experiment was conducted with JNG cells transduced with SAR constructs co-expressing a drug resistance gene (e.g., puromycin or PAC) followed by drug selection to generate a stable population of SAR-expressing cells. It is to be noted that the drug resistance gene (e.g., PAC) in the SAR constructs is optional and in vivo studies were conducted with SAR constructs lacking the PAC gene.

| Molecule | NFAT-GFP ASSAY: L363 |
| --- | --- |
| 22062 (protein) MALPVTALLLPLALLLHAARPQVQLVESGGGLVQPGGSLRLSCAASGFTFTNHAMSWVRQAPGKGLELVSSISGNGRTTYYADSVKGRFTISRDISKNTLDLQMNSLRAEDTAVYYCAKDGGETLVDSRGQGTLVTVSSLEVAALEREDLKNVFPPEVAVFEPSEAEISHTQKATLVCLATGFYPDHVELSWWVNGKEVHSGVCTDPQPLKEQPALNDSRYCLSSRLRVSATFWQNPRNHFRCQVQFYGLSENDEWTQDRAKPVTQIVSAEAWGRADCGFTSESYQQGVLSATILYEILLGKATLYAVLVSALVLMAMVKRKDSRGRAKRSGSGATNFSLLKQAGDVEENPGPTSMDWIWRILFLVGAATGAHSFEEVQLLESGGGLVQPGGSLRLSCAASGFTFSSYAMSWVRQAPGKGLEWVSSISGSGDYIYYADSVKGRFTISRDISKNTLYLQMNSLRAEDTAVYYCAKEGTGANSSLADYRGQGTLVTVSSTRIQNPDPAVYQLRDSKSSDKSVCLFTDFDSQTNVSQSKDSDVYITDKCVLDMRSMDFKSNSAVAWSNKSDFACANAFNNSIIPEDTFFPSPESSCDVKLVEKSFETDTNLNFQNLSVIGFRILLLKVAGFNLLMTLRLWSSRAKRSGSGVKQTLNFDLLKLAGDVESNPGPSRGHMTEYKPTVRLATRDDVPRAVRTLAAAFADYPATRHTVDPDRHIERVTELQELFLTRVGLDIGKVWVADDGAAVAVWTTPESVEAGAVFAEIGPRMAELSGSRLAAQQQMEGLLAPHRPKEPAWFLATVGVSPDHQGKGLGSAVVLPGVEAAERAGVPAFLETSAPRNLPFYERLGFTVTADVEVPEGPRTWCMTRKPGA | L363 (+/-) (refer to approximately 5%, 10%, 20%, 30%, 40% and 50% GFP positive cells) |
| 21988 (protein) MALPVTALLLPLALLLHAARPEVQLLESGGGLVQPGGSLRLSCAASGFTFSSYAMSWVRQAPGKGLEWVSSISGSGDYIYYADSVKGRFTISRDISKNTLYLQMNSLRAEDTAVYYCAKEGTGANSSLADYRGQGTLVTVSSLEDLKNVFPPEVAVFEPSEAEISHTQKATLVCLATGFYPDHVELSWWVNGKEVHSGVCTDPQPLKEQPALNDSRYCLSSRLRVSATFWQNPRNHFRCQVQFYGLSENDEWTQDRAKPVTQIVSAEAWGRADCGFTSESYQQGVLSATILYEILLGKATLYAVLVSALVLMAMVKRKDSRGRAKRSGSGATNFSLLKQAGDVEENPGPTSMDWIWRILFLVGAATGAHSFEVQLLESGGGLIQPGGSLRLSCAASGFTFSSHAMTWVRQAPGKGLEWVSAISGSGDYTHYADSVKGRFTISRDNSKNTVYLQMNSLRAEDSAVYYCAKDEDGGSLLGHRGQGTLVTVSSTRIQNPDPAVYQLRDSKSSDKSVCLFTDFDSQTNVSQSKDSDVYITDKCVLDMRSMDFKSNSAVAWSNKSDFACANAFNNSIIPEDTFFPSPESSCDVKLVEKSFETDTNLNFQNLSVIGFRILLLKVAGFNLLMTLRLWSSRAKRSGSGVKQTLNFDLLKLAGDVESNPGPSRGHMTEYKPTVRLATRDDVPRAVRTLAAAFADYPATRHTVDPDRHIERVTELQELFLTRVGLDIGKVWVADDGAAVAVWTTPESVEAGAVFAEIGPRMAELSGSRLAAQQQMEGLLAPHRPKEPAWFLATVGVSPDHQGKGLGSAVVLPGVEAAERAGVPAFLETSAPRNLPFYERLGFTVTADVEVPEGPRTWCMTRKPGA | + (refer to approximately 5%, 10%, 20%, 30%, 40% and 50% GFP positive cells) |
| 21990 (protein) MALPVTALLLPLALLLHAARPQVQLVESGGGLVQPGGSLRLSCAASGFTFTNHAMSWVRQAPGKGLELVSSISGNGRTTYYADSVKGRFTISRDISKNTLDLQMNSLRAEDTAVYYCAKDGGETLVDSRGQGTLVTVSSLEDLKNVFPPEVAVFEPSEAEISHTQKATLVCLATGFYPDHVELSWWVNGKEVHSGVCTDPQPLKEQPALNDSRYCLSSRLRVSATFWQNPRNHFRCQVQFYGLSENDEWTQDRAKPVTQIVSAEAWGRADCGFTSESYQQGVLSATILYEILLGKATLYAVLVSALVLMAMVKRKDSRGRAKRSGSGATNFSLLKQAGDVEENPGPTSMDWIWRILFLVGAATGAHSFEVQLLESGGGLIQPGGSLRLSCAASGFTFSSHAMTWVRQAPGKGLEWVSAISGSGDYTHYADSVKGRFTISRDNSKNTVYLQMNSLRAEDSAVYYCAKDEDGGSLLGHRGQGTLVTVSSTRIQNPDPAVYQLRDSKSSDKSVCLFTDFDSQTNVSQSKDSDVYITDKCVLDMRSMDFKSNSAVAWSNKSDFACANAFNNSIIPEDTFFPSPESSCDVKLVEKSFETDTNLNFQNLSVIGFRILLLKVAGFNLLMTLRLWSSRAKRSGSGVKQTLNFDLLKLAGDVESNPGPSRGHMTEYKPTVRLATRDDVPRAVRTLAAAFADYPATRHTVDPDRHIERVTELQELFLTRVGLDIGKVWVADDGAAVAVWTTPESVEAGAVFAEIGPRMAELSGSRLAAQQQMEGLLAPHRPKEPAWFLATVGVSPDHQGKGLGSAVVLPGVEAAERAGVPAFLETSAPRNLPFYERLGFTVTADVEVPEGPRTWCMTRKPGA | + (refer to approximately 5%, 10%, 20%, 30%, 40% and 50% GFP positive cells) |
| 22061 (protein) MALPVTALLLPLALLLHAARPQVQLVESGGGLVQPGGSLRLSCAASGFTFTNHAMSWVRQAPGKGLELVSSISGNGRTTYYADSVKGRFTISRDISKNTLDLQMNSLRAEDTAVYYCAKDGGETLVDSRGQGTLVTVSSLEGSGGGGSGGGGSGEDLKNVFPPEVAVFEPSEAEISHTQKATLVCLATGFYPDHVELSWWVNGKEVHSGVCTDPQPLKEQPALNDSRYCLSSRLRVSATFWQNPRNHFRCQVQFYGLSENDEWTQDRAKPVTQIVSAEAWGRADCGFTSESYQQGVLSATILYEILLGKATLYAVLVSALVLMAMVKRKDSRGRAKRSGSGATNFSLLKQAGDVEENPGPTSMDWIWRILFLVGAATGAHSFEEVQLLESGGGLVQPGGSLRLSCAASGFTFSSYAMSWVRQAPGKGLEWVSSISGSGDYIYYADSVKGRFTISRDISKNTLYLQMNSLRAEDTAVYYCAKEGTGANSSLADYRGQGTLVTVSSTRIQNPDPAVYQLRDSKSSDKSVCLFTDFDSQTNVSQSKDSDVYITDKCVLDMRSMDFKSNSAVAWSNKSDFACANAFNNSIIPEDTFFPSPESSCDVKLVEKSFETDTNLNFQNLSVIGFRILLLKVAGFNLLMTLRLWSSRAKRSGSGVKQTLNFDLLKLAGDVESNPGPSRGHMTEYKPTVRLATRDDVPRAVRTLAAAFADYPATRHTVDPDRHIERVTELQELFLTRVGLDIGKVWVADDGAAVAVWTTPESVEAGAVFAEIGPRMAELSGSRLAAQQQMEGLLAPHRPKEPAWFLATVGVSPDHQGKGLGSAVVLPGVEAAERAGVPAFLETSAPRNLPFYERLGFTVTADVEVPEGPRTWCMTRKPGA | L363 (2+) (refer to approximately 5%, 10%, 20%, 30%, 40% and 50% GFP positive cells) |
| 21989 (protein) MALPVTALLLPLALLLHAARPQVQLVESGGGLVQPGGSLRLSCAASGFTFTNHAMSWVRQAPGKGLELVSSISGNGRTTYYADSVKGRFTISRDISKNTLDLQMNSLRAEDTAVYYCAKDGGETLVDSRGQGTLVTVSSLEDLKNVFPPEVAVFEPSEAEISHTQKATLVCLATGFYPDHVELSWWVNGKEVHSGVCTDPQPLKEQPALNDSRYCLSSRLRVSATFWQNPRNHFRCQVQFYGLSENDEWTQDRAKPVTQIVSAEAWGRADCGFTSESYQQGVLSATILYEILLGKATLYAVLVSALVLMAMVKRKDSRGRAKRSGSGATNFSLLKQAGDVEENPGPTSMDWIWRILFLVGAATGAHSFEEVQLLESGGGLVQPGGSLRLSCAASGFTFSSYAMSWVRQAPGKGLEWVSSISGSGDYIYYADSVKGRFTISRDISKNTLYLQMNSLRAEDTAVYYCAKEGTGANSSLADYRGQGTLVTVSSTRIQNPDPAVYQLRDSKSSDKSVCLFTDFDSQTNVSQSKDSDVYITDKCVLDMRSMDFKSNSAVAWSNKSDFACANAFNNSIIPEDTFFPSPESSCDVKLVEKSFETDTNLNFQNLSVIGFRILLLKVAGFNLLMTLRLWSSRAKRSGSGVKQTLNFDLLKLAGDVESNPGPSRGHMTEYKPTVRLATRDDVPRAVRTLAAAFADYPATRHTVDPDRHIERVTELQELFLTRVGLDIGKVWVADDGAAVAVWTTPESVEAGAVFAEIGPRMAELSGSRLAAQQQMEGLLAPHRPKEPAWFLATVGVSPDHQGKGLGSAVVLPGVEAAERAGVPAFLETSAPRNLPFYERLGFTVTADVEVPEGPRTWCMTRKPGA | + (refer to approximately 5%, 10%, 20%, 30%, 40% and 50% GFP positive cells) |
